The target of assay [1] is T1, human CD4, membrane-bound on cells (HPB-ALL cells, blood/PBMC CD4+ T cells, assay target cells) (human, UniProt P01730 26-458). Briefly: cell-based or functional assay.
Assay [2] has as its target T1, human CD4, membrane-bound on cells …. Briefly: binding to human CD4 positive T cells (FIG. 21).
Assay [3] shares this target. Briefly: competition FACS on HPB-ALL cells; inhibition of dB4-Alexa (250 ng/mL).
Procedure: (§1) On V-bottomed microplates, aliquots of 2×10⁵ cells in 0.1 mL per well were added, centrifuged, and liquid discarded. […] The cells were washed once and the liquid discarded after centrifugation. To each well, aliquots of 200 μL of binding buffer were added and transferred to microdilution tubes for flow cytometric analysis. The binding intensity (mean fluorescence intensity, MFI), based on an inlet of 5,000 cells per sample, was read on FACS.
In the next assay the target is T2, recombinant soluble CD4 (UniProt P01730 26-390, limits assumed).
T2 construct: also called sCD4; rsCD4
The assay can be described thus: competition ELISA on coated sCD4/p2704a mixture; inhibition of B4-biotin (10 µg/mL). In general terms: ELISA stands for enzyme-linked immunosorbent assay.

The target in assay [4] is T1, human CD4, membrane-bound on cells …. The assay can be described thus: comparison of IC50 values of FACS competition (HPB-ALL) and ELISA competition (sCD4/p2704a).
Procedure: as §1
Assay [5] has the same target. Briefly: FACS, fresh blood CD4+ T cells of subject F2; bound dB4 detected by goat anti-hIgG-FITC. Background: In flow cytometry, cells or beads pass a laser one at a time.
Source text: (§2) The samples were calibrated with reference beads for fluorescence reading.
Assay [6] has the same target. Briefly: FACS, fresh blood CD4+ T cells of subject M3; bound dB4 detected by goat anti-hIgG-FITC.
Source text: as §2
The target is the same in assay [7]. The assay can be described thus: FACS, fresh blood CD4+ T cells, mean of six subjects; bound dB4 detected by goat anti-hIgG-FITC.
Source text: as §2
Assay [8] has the same target. Briefly: FACS direct binding to HPB-ALL cells, on ice 1 h, goat F(ab)2 anti-huIgG Fc-FITC; EC50 by % MFI, exp. 3.
Procedure: (§3) On V-bottomed microplates, aliquots of 2×10⁵ cells in 0.1 mL per well were added, centrifuged, and liquid discarded. […] This step was repeated one more time. The cells from the three incubations (passages) were investigated. […] The cells were washed once and the liquid discarded after centrifugation. To each well, aliquots of 200 μL of binding buffer were added and transferred to microdilution tubes for flow cytometric analysis. The binding intensity (mean fluorescence intensity, MFI), based on an inlet of 5,000 cells per sample, was read on FACS.
(§4) The absolute MFI values were also normalized to % MFI for purpose of between-passage comparison.
The target is the same in assay [9]. Briefly: FACS direct binding to HPB-ALL cells, on ice 1 h, goat F(ab)2 anti-huIgG Fc-FITC; EC50 by MFI, mean of 3.
Procedure: as §3, §4
The target is the same in assay [10]. The assay can be described thus: FACS direct binding to HPB-ALL cells, on ice 1 h, goat F(ab)2 anti-huIgG Fc-FITC; EC50 by % MFI, mean of 3.
Procedure: as §3, §4
The target is the same in assay [11]. The assay can be described thus: FACS, fresh blood CD4+ T cells of subject F1; free CD4 sites left by dB4 detected by dB4C7-Alexa (250 ng/mL).
For assay [12] the target is unchanged. The assay can be described thus: saturation binding to HPB-ALL cells on ice 1 h; free antibody by ELISA, bound by subtraction, curve fit; exp. 1.
Procedure: (§5) The resultant saturating free-vs.-bound concentration profiles were analyzed on SigmaPlot by curve-fitting based on the equation, [B]=Bmax·{[F]/([F]+Kd)}, where the respective [B] and [F] stand for the bound and free concentrations.
(§6) The binding study was conducted at cold and/or under 0.05% azide to avoid a potential endocytosis of the ligand-receptor complexes. Incubation at room temperature or 37° C. could allow a reaction plateau to be reached sooner. […] The supernatants were collected for determination by ELISA of the free drug concentrations, and the bound fractions were obtained by subtraction from the total.
Assay [13] shares this target. The assay can be described thus: saturation binding to HPB-ALL cells on ice 1 h; free antibody by ELISA, bound by subtraction, curve fit; exp. 3.
Procedure: as §5, §6
For assay [14] the target is unchanged. Briefly: saturation binding to HPB-ALL cells on ice 1 h; free antibody by ELISA, bound by subtraction, curve fit; mean of 3.
Procedure: as §5, §6

Where “and” joins values, the source holds several entries; their conditions need not be identical. Identical values can stand only once.

B1: mAb dB4C7 (human deimmunized, Fc-aglycosylated IgG1 derived from murine mAb B4, expressed by clone 7) (antibody, V domains shown)
VH: QVQLVQSGPELKKPGASVKVSCKASGYTFTDYVIHWVKQATGQGLEWIGEIYPGSGSAYSNAKFKDRVTMTADKSSNTAYMELSSLTSDDTAVYFCARRGNGTGFAYWGQGTLVTVSS
VL: DIVLTQSPASLAVSLGQRATITCKAGQSVDYDGDSYMNWYQQKPGQPPKLLIYVASNLESGIPARFSGSGSGTDFTLNIHPVEENDAATYYCQQSYKDPLTFGQGTKLEIKR
modifications: N-glycosylated at Asn101 in the Fv; Fc N-glycosylation site removed (N298H)
notes: treated as one molecule; also called deimmunized B4
Take B1: the “IC50 of HIV entry inhibition, pseudotype virus 92TH594 (R5/X4), U87-CD4+/CCR5+/CXCR4+ cells” value in assay [1] stood at 0.05 µg/mL. For the same molecule, the “IC50 of HIV entry inhibition, pseudotype virus HXB2 (X4), U87-CD4+/CCR5+/CXCR4+ cells” value in assay [1] worked out at 0.4 µg/mL. Further, the EC50 (as a rule, the concentration at which the effect is half-maximal) was determined as 0.33 µg/mL in assay [2]; 0.0057 µg/mL in [5]; 0.0026 µg/mL in [6]; 0.0041 µg/mL in assay [7]; 0.0407 µg/mL in assay [8]; 0.0422 µg/mL in assay [9]. Besides, the EC50 came out at 0.0429 µg/mL in assay [10] and 0.0043 µg/mL in assay [11]. Moreover, the IC50 (in general, the concentration at which inhibition is half-maximal) was 0.197 µg/mL and 1.8 nM in assay [3]; 8.19 µg/mL in the assay with recombinant soluble CD4. Further, in [4], the “fold binding affinity, CD4-positive T cells against sCD4” value was greater than 40 fold. In addition, the Kd – broadly, a measure of binding affinity in units of concentration – in assay [12] is 0.057 nM and 0.0086 µg/mL; in assay [13], 0.0047 µg/mL and 0.031 nM; in assay [14], 0.0085 µg/mL and 0.056 nM.

The values above are taken from US20170369576A1 (UBI US, published 2017).
